Data as given in patent US9994881B2, “Functionalized carboxylic acids and alcohols by reverse fatty acid oxidation in engineered microbes” (William Marsh Rice University, priority 2011, dated 2018).
Marks after values point to notes of the source that are not given here.

Experiments:
[1] = thioesterase activity (production of TNB at 412 nm); assay type: biochemical; conditions: expressed from pCA24N; for Specific activities of selected thioesterases on Acetoacetyl-CoA / Specific activities of selected thioesterases on Acetyl-CoA / Specific activities of selected thioesterases on Butyryl-CoA / Specific activities of selected thioesterases on Crotonyl-CoA / Specific activities of selected thioesterases on RS-3-Hydroxybutyryl-CoA: crude cell extract, 200 μM substrate; for Specific Activity: Table 1
Source text: (§1) For AtoB and thioesterase characterization assays, the pCA24N-gene (-gfp) plasmids from the ASKA collection^44 were used. For expression of E. gracilis TER for kinetic characterization, the egTER gene was cloned into pTrcHis2A using the In-Fusion protocol (Clontech Laboratories, Inc., Mountain View, Calif.) following PCR amplification from the aforementioned codon-optimized egTER containing plasmid with the primer pair of F1pTH6hisEgter and R1pTH6hisEgter (Supplementary Table S3).
(§2) Cultures for enzymatic assays were grown overnight in 100 mL of LB media at 37° C. in 250 mL baffled flasks (Wheaton Industries, Inc., Millville, N.J.) in E. coli BL21 (DE3) cells induced with either 1 mM IPTG (pCA24N, pTrcHis2A) or 1 mM Arabinose (pUCBB-pBAD) at an OD600˜0.6, or expressed constitutively (pUCBB-ntH6). Reactions were monitored on either a Synergy HT plate reader (BioTek Instruments, Inc., Winooski, Vt.) at 25° C. (for reactions monitored at 300 nm or higher) or in a Biomate 5 Spectrophotometer (Thermo Scientific, Waltham, Mass.) for reactions at 263 nm.
(§3) For specific activity assays (reported in μmol substrate/mg protein/min) these supernatant fractions were utilized and protein concentration was established using the Bradford Reagent (Thermo Scientific, Waltham, Mass.) using BSA as the protein standard. Linearity was established for each reaction and the background non-enzymatic rate was subtracted to establish the activity.
For kinetic characterization, an appropriate amount of enzyme was established by checking linear range near predicted KM values. Then, the rates were measured for a range of substrates in order to establish kcat and KM. In the cases of FadB for the crotonase reaction and FadA in the “forward” thiolase reaction coupled with HBD, substrate saturation could not be established, as such, the kcat/KM for the reaction was determined by dividing the linear slope of Velocity vs. [Substrate] by the amount of enzyme used in the assays. For reactions that could be saturated, Velocity vs. [Substrate] was fitted by the EnzKIN Matlab module (mathworks.com/matlabcentral/fileexchange/26653) to establish Vmax and KM.
(§4) Thioesterase activity was monitored by following the production of TNB at 412 nm ([…])^30. Reactions were carried out in the presence of 100 mM Tris pH 7.5, 200 mM KCl, […] DTNB and 200 μM of the ‘-CoA’ substrate in a volume of 200 μL at 25° C.

[2] = as above; assay type: biochemical; conditions: crude cell extract; 200 μM substrate; expressed from pCA24N
Source text: as §1, §2, §3, §4

B1: YciA: E. coli acyl-CoA thioesterase (protein, UniProt P0A8Z0 1-132, looked up)
Acyl-CoA thioester hydrolase …: MSTTHNVPQGDLVLRTLAMPADTNANGDIFGGWLMSQMDIGGAILAKEIAHGRVVTVRVEGMTFLRPVAVGDVVCCYARCVQKGTTSVSINIEVWVKKVASEPIGQRYKATEALFKYVAVDPEGKPRALPVE
[1]
  Specific activities of selected thioesterases on Acetoacetyl-CoA: 0.672 ± 0.007 μmol/mg protein/min
  Specific activities of selected thioesterases on Acetyl-CoA: 0.222 ± 0.007 μmol/mg protein/min
  Specific activities of selected thioesterases on Butyryl-CoA: 2.9 ± 0.2 μmol/mg protein/min
  Specific activities of selected thioesterases on Crotonyl-CoA: 0.27 ± 0.03 μmol/mg protein/min
  Specific activities of selected thioesterases on RS-3-Hydroxybutyryl-CoA: 0.441 ± 0.009 μmol/mg protein/min
[1]; substrate Acetoacetyl-CoA
  Specific Activity: 0.672 ± 0.007^b μmol/mg/min
[1]; substrate Acetyl-CoA
  Specific Activity: 0.222 ± 0.007^b μmol/mg/min
[1]; substrate Butyryl-CoA
  Specific Activity: 2.9 ± 0.2^b μmol/mg/min
[1]; substrate Crotonyl-CoA
  Specific Activity: 0.27 ± 0.03^b μmol/mg/min
[1]; substrate RS-3-Hydroxybutyryl-CoA
  Specific Activity: 0.441 ± 0.009^b μmol/mg/min
[2]
  Specific activities of selected thioesterases on Decanyl-CoA: 3.7 ± 0.3 μmol/mg protein/min

B2: FadM: E. coli long-chain acyl-CoA thioesterase (protein, UniProt P77712 1-132, looked up)
Long-chain acyl-CoA …: MQTQIKVRGYHLDVYQHVNNARYLEFLEEARWDGLENSDSFQWMTAHNIAFVVVNININYRRPAVLSDLLTITSQLQQLNGKSGILSQVITLEPEGQVVADALITFVCIDLKTQKALALEGELREKLEQMVK
[1]
  Specific activities of selected thioesterases on Acetoacetyl-CoA: 0.042 ± 0.004 μmol/mg protein/min
  Specific activities of selected thioesterases on Acetyl-CoA: 0.0331 ± 0.0006 μmol/mg protein/min
  Specific activities of selected thioesterases on Butyryl-CoA: 0.027 ± 0.001 μmol/mg protein/min
  Specific activities of selected thioesterases on Crotonyl-CoA: 0.0017 ± 0.0003 μmol/mg protein/min
  Specific activities of selected thioesterases on RS-3-Hydroxybutyryl-CoA: 0.009 ± 0.002 μmol/mg protein/min
[2]
  Specific activities of selected thioesterases on Decanyl-CoA: 0.034 ± 0.003 μmol/mg protein/min

B3: TesA: E. coli multifunctional acyl-CoA thioesterase I and protease I and lysophospholipase L1 (protein, UniProt P0ADA1 27-208, looked up)
Thioesterase 1/protease …: ADTLLILGDSLSAGYRMSASAAWPALLNDKWQSKTSVVNASISGDTSQQGLARLPALLKQHQPRWVLVELGGNDGLRGFQPQQTEQTLRQILQDVKAANAEPLLMQIRLPANYGRRYNEAFSAIYPKLAKEFDVPLLPFFMEEVYLKPQWMQDDGIHPNRDAQPFIADWMAKQLQPLVNHDS
[1]
  Specific activities of selected thioesterases on Acetoacetyl-CoA: 0.044 ± 0.005 μmol/mg protein/min
  Specific activities of selected thioesterases on Acetyl-CoA: 0.036 ± 0.002 μmol/mg protein/min
  Specific activities of selected thioesterases on Butyryl-CoA: 0.049 ± 0.002 μmol/mg protein/min
  Specific activities of selected thioesterases on Crotonyl-CoA: 0.007 ± 0.003 μmol/mg protein/min
  Specific activities of selected thioesterases on RS-3-Hydroxybutyryl-CoA: 0.02 ± 0.01 μmol/mg protein/min
[2]
  Specific activities of selected thioesterases on Decanyl-CoA: 0.47 ± 0.04 μmol/mg protein/min

B4: YdiI: E. coli Acyl-CoA thioesterase (protein, UniProt P77781 1-136, looked up)
1,4-dihydroxy-2-naphthoyl-CoA …: MIWKRKITLEALNAMGEGNMVGFLDIRFEHIGDDTLEATMPVDSRTKQPFGLLHGGASVVLAESIGSVAGYLCTEGEQKVVGLEINANHVRSAREGRVRGVCKPLHLGSRHQVWQIEIFDEKGRLCCSSRLTTAIL
[1]
  Specific activities of selected thioesterases on Acetoacetyl-CoA: 0.047 ± 0.001 μmol/mg protein/min
  Specific activities of selected thioesterases on Acetyl-CoA: 0.036 ± 0.003 μmol/mg protein/min
  Specific activities of selected thioesterases on Butyryl-CoA: 0.0917 ± 0.0007 μmol/mg protein/min
  Specific activities of selected thioesterases on Crotonyl-CoA: 0.078 ± 0.005 μmol/mg protein/min
  Specific activities of selected thioesterases on RS-3-Hydroxybutyryl-CoA: 0.012 ± 0.002 μmol/mg protein/min
[2]
  Specific activities of selected thioesterases on Decanyl-CoA: 0.18 ± 0.04 μmol/mg protein/min

B5: YbgC: E. coli Acyl-CoA thioesterase (protein, UniProt P0A8Z3 1-134, looked up)
Acyl-CoA thioester hydrolase …: MNTTLFRWPVRVYYEDTDAGGVVYHASYVAFYERARTEMLRHHHFSQQALMAERVAFVVRKMTVEYYAPARLDDMLEIQTEITSMRGTSLVFTQRIVNAENTLLNEAEVLVVCVDPLKMKPRALPKSIVAEFKQ
[1]
  Specific activities of selected thioesterases on Acetoacetyl-CoA: 0.065 ± 0.002 μmol/mg protein/min
  Specific activities of selected thioesterases on Acetyl-CoA: 0.036 ± 0.002 μmol/mg protein/min
  Specific activities of selected thioesterases on Butyryl-CoA: 0.045 ± 0.007 μmol/mg protein/min
  Specific activities of selected thioesterases on Crotonyl-CoA: 0.006 ± 0.001 μmol/mg protein/min
  Specific activities of selected thioesterases on RS-3-Hydroxybutyryl-CoA: 0.016 ± 0.004 μmol/mg protein/min
[2]
  Specific activities of selected thioesterases on Decanyl-CoA: 0.06 ± 0.02 μmol/mg protein/min

B6: TesB: E. coli thioesterase II (protein, UniProt P0AGG2 2-286, looked up)
Acyl-CoA thioesterase 2: SQALKNLLTLLNLEKIEEGLFRGQSEDLGLRQVFGGQVVGQALYAAKETVPEERLVHSFHSYFLRPGDSKKPIIYDVETLRDGNSFSARRVAAIQNGKPIFYMTASFQAPEAGFEHQKTMPSAPAPDGLPSETQIAQSLAHLLPPVLKDKFICDRPLEVRPVEFHNPLKGHVAEPHRQVWIRANGSVPDDLRVHQYLLGYASDLNFLPVALQPHGIGFLEPGIQIATIDHSMWFHRPFNLNEWLLYSVESTSASSARGFVRGEFYTQDGVLVASTVQEGVMRNHN
[1]
  Specific activities of selected thioesterases on Acetoacetyl-CoA: 0.056 ± 0.001 μmol/mg protein/min
  Specific activities of selected thioesterases on Acetyl-CoA: 0.030 ± 0.001 μmol/mg protein/min
  Specific activities of selected thioesterases on Butyryl-CoA: 0.101 ± 0.002 μmol/mg protein/min
  Specific activities of selected thioesterases on Crotonyl-CoA: 0.010 ± 0.001 μmol/mg protein/min
  Specific activities of selected thioesterases on RS-3-Hydroxybutyryl-CoA: 0.032 ± 0.002 μmol/mg protein/min
[2]
  Specific activities of selected thioesterases on Decanyl-CoA: 0.6 ± 0.1 μmol/mg protein/min
